Test results taken from patent US20050192282A1, “Chemokine inhibiting piperazine derivatives and their use to treat multiple myeloma” (Schering Aktiengesellschaft, priority 2004, published 2005).
“Also recorded” adds a separate entry of the source.

T1: Human CCR1 (Homo sapiens, UniProt P32246)
T1 sequence (P32246 1-355): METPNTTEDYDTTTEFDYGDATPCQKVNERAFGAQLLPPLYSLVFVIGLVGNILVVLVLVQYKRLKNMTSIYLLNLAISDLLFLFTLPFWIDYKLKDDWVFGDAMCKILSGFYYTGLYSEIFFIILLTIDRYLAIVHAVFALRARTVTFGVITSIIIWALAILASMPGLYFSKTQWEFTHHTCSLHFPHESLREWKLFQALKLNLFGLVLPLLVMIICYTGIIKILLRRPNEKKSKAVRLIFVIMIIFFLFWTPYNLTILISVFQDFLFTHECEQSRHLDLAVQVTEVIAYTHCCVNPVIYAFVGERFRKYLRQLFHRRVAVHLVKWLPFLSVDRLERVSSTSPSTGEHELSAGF

B1: MIP-1β: human chemokine binding CCR1 with low affinity (protein, UniProt P13236 24-92, looked up)
C-C motif chemokine 4: APMGSDPPTACCFSYTARKLPRNFVVDYYETSSLCSQPAVVFQTKRSKQVCADPSESWVQEYVYDLELN
B2: MIP-1α: human CC chemokine, ligand for CCR1 and CCR5; recombinant form used as stimulus (protein, UniProt P10147 24-92, looked up)
C-C motif chemokine 3: SLAADTPTACCFSYTSRQIPQNFIADYFETSSQCSKPGVIFLTKRSRQVCADPSEEWVQKYVSDLELSA

Legend:
Human CCR1 = molecular target: T1, Human CCR1; conditions: cited from earlier work
[1] = tested on: β1 integrin mRNA expression in MM.1S human Myeloma cells; test: RT-PCR analysis of β1 integrin mRNA expression in MM.1S myeloma cells cocultured with ST2 stromal cells; assay type: cell-based; conditions: MM.1S cocultured with ST2; treated with 1 ng/ml of rhMIP-1a, 12 hours

Molecule | ability to signal through human CCR1 (Human CCR1) | β1 integrin mRNA expression levels [1]
MCP-1: human chemokine binding CCR1 with low affinity | neither ligand is able to signal | 
B1 | neither ligand is able to signal | 
B2 |  | significantly increased; also recorded: significantly enhanced
